Laboratory results published in US20220143148A1, “COMPOSITIONS AND METHODS FOR MODULATING CGRP SIGNALING TO REGULATE INTESTINAL INNATE LYMPHOID CELLS” (The Broad Institute, Inc., priority 2019, published 2022).

Tested on: small intestinal immune cells
Experiment: Droplet-based scRNA-seq of small intestinal immune cells (LP and PP), OVA vs PBS, clustering and differential expression
Format: in vivo, mouse
Conditions: cluster ID 4, PP
From the text: To comprehensively characterize small intestinal immune cells, Applicants generated scRNA-Seq profiles for 58,067 immune cells collected from lamina propria (LP) and Peyer's patch (PP) regions at steady state and after induction of a type 2 inflammatory reaction to ovalbumin (OVA) (Brandt et al., 2003) (FIGS. 1A and 8A). To ensure sufficient representation of rare cells, Applicants combined a normalization strategy—removing by flow sorting either a portion of IgD+ naïve B cells, which are the most abundant cell type in PPs, or all CD19+ and CD3+ T cells (FIG. 8B, Methods)—with profiling of a sufficiently large number of cells number (P>0.99 to recover at least 15 cells from each cluster, Methods) by massively parallel scRNA-seq (Haber et al., 2017) (Methods). Applicants obtained 36,797 and 21,270 high quality cells passing initial filtering (Methods) from PP and LP regions, respectively.
Overall, Applicants annotated 27 cell subsets across the two compartments, spanning T cells, B cells, ILCs, dendritic cells (DCs), myeloid cells and stromal cells, in frequencies ranging from 0.07% to 14%. Briefly, Applicants first partitioned the cells from the PP regions by unsupervised clustering (Methods) into 46 clusters, retained the 97% of cells that were robustly assigned cell identities in each cluster (Methods), assigned the cells from the LP regions to the 46 clusters using a classifier (Methods), and visualized the data with scvis (Ding et al., 2018), a deep generative model-based method (FIGS. 1B and 8C, Methods). Next, Applicants identified genes that were differentially expressed between the cells in each cluster and the remaining cells (Table 1, Methods), as well as between pairs of clusters (Table 2), to elucidate identities of similar cell types/states. Applicants excluded from downstream analysis clusters mostly consisting of contaminants from epithelium, likely doublets, or cells with a small number of Unique Molecular Identifiers (UMIs) (FIGS. 1C and 8D), or lacking distinct markers (Methods). Altogether, Applicants retained 27 clusters spanning 85% of the cells and each associated with distinct marker genes (FIG. 8E, Methods).
To induce allergic reaction to OVA, 6 to 7 weeks old mice were sensitized twice, two weeks apart, with 50 μg of OVA plus 1 mg of aluminum potassium sulfate adjuvant via intraperitoneal injection. Two weeks later, mice were orally administered with 50 mg of OVA on every other day for a total of five times. 1 μg of α-CGRP peptide was administered simultaneously when indicated. Mice were deprived of food for 3-4 hours in cages with wood chip bedding for limiting antigen degradation in the stomach before each intragastric challenge.
Isolation of cells from Peyer's patches (PPs). Peyer's patches (PPs) were carefully dissected from the small intestine under a stereo microscope using a fine scissor, pierced once with a fine forcep. Tissues were digested in freshly made digestion buffer (RPMI-1640 containing 100 μg/ml Liberase™ and 50 μg/ml DNase I at 37° C. on a roto-mixer. After 15 min, tissues were very gently mixed using a 1 ml pipette. The supernatant was collected and added to ice-cold MACS buffer (pH 7.4; PBS plus 2% FCS and 2 mM EDTA). Pre-warmed (37° C.) fresh digestion buffer was added to the remaining tissues. After rotation at 37° C. for 15 min, the mixture was vigorously mixed using a 1 ml pipette for 1 min. Supernatants from the two steps were combined and passed through 70 μm filters and stained for FACS (below).
Isolation of cells from the lamina propria (LP). The small intestines were opened longitudinally and washed in ice-cold PBS. For scRNA-seq, roughly 0.5 cm of fragments from each of the distal, middle and proximal regions without visible PPs were collected. Epithelial cells were dissociated by tissue rotation in pre-warmed (37° C.) PBS containing 10 mM EDTA at 37° C. for 15 min, followed by additional incubation on ice for 15 min. Tissues were then shaken vigorously. […]

B1: OVA (protein, UniProt P01012 2-386, looked up)
Ovalbumin: GSIGAASMEFCFDVFKELKVHHANENIFYCPIAIMSALAMVYLGAKDSTRTQINKVVRFDKLPGFGDSIEAQCGTSVNVHSSLRDILNQITKPNDVYSFSLASRLYAEERYPILPEYLQCVKELYRGGLEPINFQTAADQARELINSWVESQTNGIIRNVLQPSSVDSQTAMVLVNAIVFKGLWEKAFKDEDTQAMPFRVTEQESKPVQMMYQIGLFRVASMASEKMKILELPFASGTMSMLVLLPDEVSGLEQLESIINFEKLTEWTSSNVMEERKIKVYLPRMKMEEKYNLTSVLMAMGITDVFSSSANLSGISSAESLKISQAVHAAHAEINEAGREVVGSAEAGVDAASVSEEFRADHPFLFCIKHIATNAVLFFGRCVSP
H2-T23: percentage of expressing cells in OVA-treated group: 0.264
Herpud1: percentage of expressing cells in OVA-treated group: 0.33
Icos: percentage of expressing cells in OVA-treated group: 0.236
Il2ra: percentage of expressing cells in OVA-treated group: 0.457
Il18r1: percentage of expressing cells in OVA-treated group: 0.605
Irf2: percentage of expressing cells in OVA-treated group: 0.306
Irs2: percentage of expressing cells in OVA-treated group: 0.149
Itgav: percentage of expressing cells in OVA-treated group: 0.175
Klf13: percentage of expressing cells in OVA-treated group: 0.417
Klrk1: percentage of expressing cells in OVA-treated group: 0.133
Leng9: percentage of expressing cells in OVA-treated group: 0.128
Map3k14: percentage of expressing cells in OVA-treated group: 0.133
Mast4: percentage of expressing cells in OVA-treated group: 0.467
Mbnl2: percentage of expressing cells in OVA-treated group: 0.162
Minos1: percentage of expressing cells in OVA-treated group: 0.768
Morf4l2: percentage of expressing cells in OVA-treated group: 0.317
Neat1: percentage of expressing cells in OVA-treated group: 0.502
Nedd8: percentage of expressing cells in OVA-treated group: 0.781
Plekhg1: percentage of expressing cells in OVA-treated group: 0.231
Ppp1r16b: percentage of expressing cells in OVA-treated group: 0.302
Ppp2ca: percentage of expressing cells in OVA-treated group: 0.336
Ptger2: percentage of expressing cells in OVA-treated group: 0.299
Ptpn7: percentage of expressing cells in OVA-treated group: 0.337
Raf1: percentage of expressing cells in OVA-treated group: 0.232
Ramp3: percentage of expressing cells in OVA-treated group: 0.224
Rassf5: percentage of expressing cells in OVA-treated group: 0.31
Rcn2: percentage of expressing cells in OVA-treated group: 0.258
Rel: percentage of expressing cells in OVA-treated group: 0.19
Rgs1: percentage of expressing cells in OVA-treated group: 0.498
Rgs3: percentage of expressing cells in OVA-treated group: 0.282
Rnf19b: percentage of expressing cells in OVA-treated group: 0.427
Rpa3: percentage of expressing cells in OVA-treated group: 0.175
S100a6: percentage of expressing cells in OVA-treated group: 0.603
S100a10: percentage of expressing cells in OVA-treated group: 0.866
Saraf: percentage of expressing cells in OVA-treated group: 0.557
Sat1: percentage of expressing cells in OVA-treated group: 0.744
Scn1b: percentage of expressing cells in OVA-treated group: 0.314
Sec11a: percentage of expressing cells in OVA-treated group: 0.376
Serpina3g: percentage of expressing cells in OVA-treated group: 0.587
Serpinb6b: percentage of expressing cells in OVA-treated group: 0.2
Ssna1: percentage of expressing cells in OVA-treated group: 0.294
Taf7: percentage of expressing cells in OVA-treated group: 0.144
Taf10: percentage of expressing cells in OVA-treated group: 0.297
Tagap: percentage of expressing cells in OVA-treated group: 0.461
Tcrg-C1: percentage of expressing cells in OVA-treated group: 0.36
Tgoln1: percentage of expressing cells in OVA-treated group: 0.286
Timm13: percentage of expressing cells in OVA-treated group: 0.592
Tnf: percentage of expressing cells in OVA-treated group: 0.245
Trim8: percentage of expressing cells in OVA-treated group: 0.223
Trps1: percentage of expressing cells in OVA-treated group: 0.17
Tsc22d3: percentage of expressing cells in OVA-treated group: 0.489
Tspan32: percentage of expressing cells in OVA-treated group: 0.395
Ttc19: percentage of expressing cells in OVA-treated group: 0.152
Tuba4a: percentage of expressing cells in OVA-treated group: 0.156
Tubb4b: percentage of expressing cells in OVA-treated group: 0.347
Txk: percentage of expressing cells in OVA-treated group: 0.529
Vegfa: percentage of expressing cells in OVA-treated group: 0.131
VgIl4: percentage of expressing cells in OVA-treated group: 0.338
Zc3hav1: percentage of expressing cells in OVA-treated group: 0.145
Zfand5: percentage of expressing cells in OVA-treated group: 0.252
1600014C10Rik: LN (average fold change) (OVA vs PBS): 0.467
2010300C02Rik: LN (average fold change) (OVA vs PBS): 0.310
2310001H17Rik: LN (average fold change) (OVA vs PBS): 0.484
4921524J17Rik: LN (average fold change) (OVA vs PBS): 0.531
Alyref: LN (average fold change) (OVA vs PBS): −0.564
Amd1: LN (average fold change) (OVA vs PBS): −0.353
Asb2: LN (average fold change) (OVA vs PBS): 0.320
Azin1: LN (average fold change) (OVA vs PBS): −0.472
Bin3: LN (average fold change) (OVA vs PBS): 0.452
Bzw1: LN (average fold change) (OVA vs PBS): −0.190
Cacybp: LN (average fold change) (OVA vs PBS): 0.291
Cd69: LN (average fold change) (OVA vs PBS): −0.153
Cdkn1a: LN (average fold change) (OVA vs PBS): −0.202
Clec2d: LN (average fold change) (OVA vs PBS): 0.489
Cwc25: LN (average fold change) (OVA vs PBS): −0.463
